Data from article PMC11187117, “Structure of the endosomal CORVET tethering complex” (Nature Communications, 2024).

Legend:
[1] = target: T1, Vps16 (CORVET and HOPS subunit, SNARE-binding module) (yeast, UniProt Q03308 1-798); experiment: cryo-EM structure; single-particle cryo-EM of the hexameric CORVET co-expressed in yeast and purified by 3xFLAG on Vps8 and SEC; about 0.8 mg/ml; consensus map 4.6 Å, local refinements to 3.8 Å; details: both partners purified
T1 construct: Vps16, yeast, subunit shared by CORVET and HOPS
T1 sequence: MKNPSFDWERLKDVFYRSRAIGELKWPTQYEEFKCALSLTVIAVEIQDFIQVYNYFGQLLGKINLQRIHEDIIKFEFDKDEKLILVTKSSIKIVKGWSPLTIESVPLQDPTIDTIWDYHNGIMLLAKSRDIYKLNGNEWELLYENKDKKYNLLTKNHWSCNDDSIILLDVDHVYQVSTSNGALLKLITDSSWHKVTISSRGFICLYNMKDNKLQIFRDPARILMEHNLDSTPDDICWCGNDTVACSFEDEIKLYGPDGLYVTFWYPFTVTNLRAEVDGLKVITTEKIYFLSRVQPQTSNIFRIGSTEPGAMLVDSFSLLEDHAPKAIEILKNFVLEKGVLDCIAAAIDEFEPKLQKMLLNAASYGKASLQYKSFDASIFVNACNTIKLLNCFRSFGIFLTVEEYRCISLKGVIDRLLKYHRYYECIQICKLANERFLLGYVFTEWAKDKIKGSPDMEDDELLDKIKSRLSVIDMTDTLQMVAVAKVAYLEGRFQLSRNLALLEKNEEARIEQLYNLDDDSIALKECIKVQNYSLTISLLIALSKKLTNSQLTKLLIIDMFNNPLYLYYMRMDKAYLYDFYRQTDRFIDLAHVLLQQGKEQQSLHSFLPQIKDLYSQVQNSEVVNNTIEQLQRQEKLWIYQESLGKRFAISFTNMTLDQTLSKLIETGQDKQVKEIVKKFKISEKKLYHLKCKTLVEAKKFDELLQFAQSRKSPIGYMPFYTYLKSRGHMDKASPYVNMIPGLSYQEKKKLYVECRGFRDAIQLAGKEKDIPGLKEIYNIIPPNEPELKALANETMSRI

[2] = target: T2, Vps18 (CORVET and HOPS core subunit) (yeast, UniProt P27801 1-918); experiment: as above; details: both partners purified
T2 construct: Vps18, yeast, core subunit shared by CORVET and HOPS
T2 sequence: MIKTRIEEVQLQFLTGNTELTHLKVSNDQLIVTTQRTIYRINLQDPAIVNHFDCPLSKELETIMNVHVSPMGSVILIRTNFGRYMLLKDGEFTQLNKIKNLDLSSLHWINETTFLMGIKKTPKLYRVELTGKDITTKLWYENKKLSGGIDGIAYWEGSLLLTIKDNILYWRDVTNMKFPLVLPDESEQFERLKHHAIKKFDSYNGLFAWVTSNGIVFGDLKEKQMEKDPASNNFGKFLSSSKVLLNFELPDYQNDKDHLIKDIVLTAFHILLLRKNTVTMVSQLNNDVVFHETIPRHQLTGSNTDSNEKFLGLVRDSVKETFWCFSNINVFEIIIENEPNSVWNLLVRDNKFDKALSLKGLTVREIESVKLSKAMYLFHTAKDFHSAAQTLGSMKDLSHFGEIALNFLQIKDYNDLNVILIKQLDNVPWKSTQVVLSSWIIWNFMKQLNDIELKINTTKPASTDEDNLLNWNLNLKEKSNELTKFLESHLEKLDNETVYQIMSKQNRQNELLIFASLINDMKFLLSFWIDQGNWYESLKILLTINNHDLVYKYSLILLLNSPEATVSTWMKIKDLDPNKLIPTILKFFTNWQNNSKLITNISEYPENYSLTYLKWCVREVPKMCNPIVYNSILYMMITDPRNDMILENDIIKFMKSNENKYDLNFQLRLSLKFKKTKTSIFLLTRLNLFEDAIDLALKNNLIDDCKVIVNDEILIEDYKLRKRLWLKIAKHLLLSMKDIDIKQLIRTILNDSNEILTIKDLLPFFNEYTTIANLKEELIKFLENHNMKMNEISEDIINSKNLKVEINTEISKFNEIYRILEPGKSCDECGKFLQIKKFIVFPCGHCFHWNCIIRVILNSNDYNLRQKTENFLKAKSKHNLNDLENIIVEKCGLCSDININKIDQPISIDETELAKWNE

B1: Vps33 (CORVET and HOPS subunit, SM protein of the SNARE-binding module) (natural protein, yeast)
chain: MNRFWNTKKFSLTNADGLCATLNEISQNDEVLVVQPSVLPVLNSLLTFQDLTQSTPVRKITLLDDQLSDDLPSALGSVPQMDLIFLIDVRTSLRLPPQLLDAAQKHNLSSLHIIYCRWKPSFQNTLEDTEQWQKDGFDLNSKKTHFPNVIESQLKELSNEYTLYPWDLLPFPQIDENVLLTHSLYNMENVNMYYPNLRSLQSATESILVDDMVNSLQSLIFETNSIITNVVSIGNLSKRCSHLLKKRIDEHQTENDLFIKGTLYGERTNCGLEMDLIILERNTDPITPLLTQLTYAGILDDLYEFNSGIKIKEKDMNFNYKEDKIWNDLKFLNFGSIGPQLNKLAKELQTQYDTRHKAESVHEIKEFVDSLGSLQQRQAFLKNHTTLSSDVLKVVETEEYGSFNKILELELEILMGNTLNNDIEDIILELQYQYEVDQKKILRLICLLSLCKNSLREKDYEYLRTFMIDSWGIEKCFQLESLAELGFFTSKTGKTDLHITTSKSTRLQKEYRYISQWFNTVPIEDEHAADKITNENDDFSEATFAYSGVVPLTMRLVQMLYDRSILFHNYSSQQPFILSREPRVSQTEDLIEQLYGDSHAIEESIWVPGTITKKINASIKSNNRRSIDGSNGTFHAAEDIALVVFLGGVTMGEIAIMKHLQKILGKKGINKRFIIIADGLINGTRIMNSIS
notes: Vps33, yeast, subunit shared by CORVET and HOPS
binding result [1]: binds | binding result [2]: binds
